Assay results: patent US20220306762A1 (CRYSTAL BIOSCIENCE, published 2022)
Numbering of substitutions follows the chain as printed.

T1: murine CD38 on transiently transfected Expi293 cells (Origene MC208001) (murine, UniProt P56528 1-304)
T1 construct: whole, on cells; also called Murine (FACs)
T1 sequence (looked up): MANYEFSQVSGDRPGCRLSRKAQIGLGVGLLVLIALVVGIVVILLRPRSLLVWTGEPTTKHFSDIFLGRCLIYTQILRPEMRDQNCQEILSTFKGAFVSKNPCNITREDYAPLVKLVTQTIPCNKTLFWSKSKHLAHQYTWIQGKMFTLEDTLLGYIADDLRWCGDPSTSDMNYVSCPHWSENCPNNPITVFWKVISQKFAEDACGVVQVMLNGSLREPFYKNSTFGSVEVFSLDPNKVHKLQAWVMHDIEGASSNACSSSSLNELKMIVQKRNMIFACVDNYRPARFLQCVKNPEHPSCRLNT

T2: His-tagged mouse CD38 (ACRO Biosystems #CD8-M5223) (mouse, UniProt P56528 45-304)
T2 construct: bought recombinant protein with His tag; also called Murine
T2 sequence (looked up): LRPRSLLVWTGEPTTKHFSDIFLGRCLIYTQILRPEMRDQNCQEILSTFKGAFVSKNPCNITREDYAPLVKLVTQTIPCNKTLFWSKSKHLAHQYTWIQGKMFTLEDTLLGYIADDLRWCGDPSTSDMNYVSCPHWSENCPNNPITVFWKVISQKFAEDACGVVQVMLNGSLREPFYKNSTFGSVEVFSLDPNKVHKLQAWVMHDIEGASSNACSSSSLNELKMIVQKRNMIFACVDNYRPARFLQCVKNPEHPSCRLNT

B1: 40617p1.2.A3 (scFv, V domains shown)
VH: EVQLLESGGGLVQPGGSLRLSCAASGFTFSNYWMTWVRQAPGKGLEWVSAISSYGGNYIYYADSVKGRFTISRDNSKDTLYLQMNSLRAEDTAVYYCAKDWDDGMDVWGQGTTVTVSS
VL: EIVMTQSPAVLSVSPGERATLSCRASQSVNSKLAWYQQKPGQAPRLLIYGASTRAAGIPDRFSGSGSGTDFTLTISSPQSEDFAVYYCQHYYDLPPYSFGGGTKVEIK
notes: tested as scFv-Fc supernatant
B2: 40617p1.2.A1 (scFv, V domains shown)
VH: B1 VH with N31S, N57Q, I59T, Q83H, N85D
VL: B1 VL with S31I, P78L, E81D, H90Q
notes: tested as scFv-Fc supernatant
B3: 40617p1.2.H1 (scFv, V domains shown)
VH: B1 VH with S30T, I59M, K77E, D78N
VL: B1 VL with S28T, N30G, A51V, P78L, H90Q
notes: tested as scFv-Fc supernatant
B4: 40617p1.2.H8 (scFv, V domains shown)
VH: B1 VH with N31S, I59M
VL: B1 VL with V10T, E17D, G50A, T53S, A56T, S77R, P78L, Q79E, S80P, H90Q
notes: tested as scFv-Fc supernatant
B5: 40596p1.F6 (scFv, V domains shown)
VH: EVQLLESGGGLVQPGGSLRLSCAASGFDFSKNAMSWVRQAPGKGLEYVAGSGWSGSFIFYADSVKGRFTVSRDNSENTLYLQMSSLRAEDTAVYYCAKNPGFGEMDVWGQGTTVTVSS
VL: EIVLTQSPGSLFLSPGERATLTCRASQTIGSNLAWYQQKFGQAPRLLIYGASTRAADIPDRFSGSGSGTEFTLTISSLQSEDFAVYYCQQYNSWPPLTFGGGTKVEIK
notes: tested as scFv-Fc supernatant
B6: 40596p1.D2 (scFv, V domains shown)
VH: B5 VH with F68S
VL: B5 VL with I2L
notes: tested as scFv-Fc supernatant
B7: 40596p1.G10 (scFv, V domains shown)
VH: B5 VH with S25P
VL: B5 VL
notes: tested as scFv-Fc supernatant
B8: 40596p1.A5 (scFv, V domains shown)
VH: B5 VH with K31N, S84N
VL: B5 VL with F12S, T22R, T28S, F40P, R45S, S76T
notes: tested as scFv-Fc supernatant
B9: 40566p1.C9 (scFv, V domains shown)
VH: DVQLVESGGGVVRPGESLRLSCAASGFTFDNYDMTWVRQAPGEGLEWVSFISSRGTFTYYTDSVKGRFTISRDNSKNTLYLQMNSLRAEDTAIYYCTKDSGEYYFFDYWGLGTLVTVSS
VL: ETVMTQSPATLSVSPGERATFSCRASQSVNSKLAWYQQKPGQAPRLLIYDASRRATGIPDRFSGSGSGTEFTLTISSLQSEDFAVYFCQQYYDWPPLTFGGGTKVEIK
notes: tested as scFv-Fc supernatant
B10: 40566p1.F8 (scFv, V domains shown)
VH: B9 VH with T58A
VL: B9 VL with T2I, D50G, F87Y
notes: tested as scFv-Fc supernatant
B11: 40596p1.B1 (scFv, V domains shown)
VH: EVQLLESGGGLVEPGGSLRLSCAASGFDFSTYAMTWVRQAPGKGLEWVAGNGWSGSFIYYADSVKGRFTISRDNSKNTLYLQMNSLRAEDTAVYYCTRNPGFGEMDVWGQGTTVTVSS
VL: EIVLTQSPGTLRLSPGERATLSCKASQTVGTTLAWYQQKPGQAPRLLIYGASTRATGIPDRFSGSGSGTEFTLTISSLQSEDFADYYCQQYKSWPPLTFGGGTKVEIK
notes: tested as scFv-Fc supernatant

How the values were obtained:
[1] = target: T3, human CD38 on transiently transfected Expi293 cells (Origene #SC321273) (human, UniProt P28907 1-300); experiment: flow cytometry, transfected Expi293 cells;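 also: antibody binding to Expi293 cells transiently expressing human or murine CD38, antibodies applied at 10 ug/ml for 60 min on ice, read by flow cytometry as percent gated cells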
T3 construct: whole, on cells; also called Human (FACs)

[2] = target: T1, murine CD38 on transiently transfected …; experiment: flow cytometry, transfected Expi293 cells;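 also: antibody binding to Expi293 cells transiently expressing human or murine CD38, antibodies applied at 10 ug/ml for 60 min on ice, read by flow cytometry as percent gated cells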
[3] = target: T4, His-tagged cynomolgus monkey CD38 (ACRO Biosystems cat #CD8-05223) (cynomolgus monkey, UniProt Q5VAN0 43-301); experiment: ELISA, coated His-CD38
T4 construct: bought recombinant protein with His tag

[4] = target: T2, His-tagged mouse CD38 (ACRO Biosystems …); experiment: ELISA, coated His-CD38
[5] = target: T5, His-tagged human CD38 (ACRO Biosystems cat #CD8-H5224) (human, UniProt P28907 43-300); experiment: ELISA, coated His-CD38
T5 construct: bought recombinant protein with His tag

[6] = target: T4, His-tagged cynomolgus monkey CD38 (ACRO …); experiment: SPR, captured scFv-Fc, His-CD38 analyte;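 also: SPR on a Carterra LSA, scFv-Fc captured by anti-human Fc on HC30M chip, His-tagged CD38 (human, mouse, cynomolgus) flowed as analyte in eight 1:2 steps from 400 nM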
[7] = target: T2, His-tagged mouse CD38 (ACRO Biosystems …); experiment: SPR, captured scFv-Fc, His-CD38 analyte;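 also: SPR on a Carterra LSA, scFv-Fc captured by anti-human Fc on HC30M chip, His-tagged CD38 (human, mouse, cynomolgus) flowed as analyte in eight 1:2 steps from 400 nM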
[8] = target: T5, His-tagged human CD38 (ACRO Biosystems …); experiment: SPR, captured scFv-Fc, His-CD38 analyte;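 also: SPR on a Carterra LSA, scFv-Fc captured by anti-human Fc on HC30M chip, His-tagged CD38 (human, mouse, cynomolgus) flowed as analyte in eight 1:2 steps from 400 nM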

Binder | FACs 10 ug/ml (percent gated) [1] [%] | FACs 10 ug/ml (percent gated) [2] [%] | ELISA 1 ug/ml [3] | ELISA 1 ug/ml [4] | ELISA 1 ug/ml [5] | Kd [6] [nM] | Kd [7] [nM] | Kd [8] [nM]
B1 | 70.3 | 69.4 | 1.7 | 0.745 | 1.75 | 92.8 | 75.5 | 28.1
B2 | 78.8 | 67.9 | 1.67 | 1.13 | 1.57 | 77.9 | 108 | 82.9
B3 | 69.5 | 68.5 | 1.83 | 1.05 | 1.81 | 30.6 | 39.4 | 12.5
B4 | 67.8 | 68.4 | 2.17 | 1.5 | 1.77 | 39.3 | 154 | 60.7
B5 | 72.8 | 68.6 | 1.87 | 1.9 | 1.91 | 98.4 | 10.8 | 84.7
B6 | 71.5 | 61 | 1.85 | 1.77 | 1.98 | 154 | 19 | 63.7
B7 | 68 | 59 | 1.89 | 1.74 | 1.84 | 56.3 | 20.8 | 67.8
B8 | 72.8 | 68.7 | 1.97 | 1.81 | 1.88 | 13.6 | 6.82 | 75.8
B9 | 31.3 | 76.9 | 1.66 | 1.97 | 1.83 | 4.67 | 0.351 | 0.269
B10 | 19.5 | 72.1 | 1.8 | 1.88 | 1.75 | 4.82 | 7.59 | 10900
B11 | 66.1 | 45.4 | 1.99 | 1.76 | 1.79 | 110 | 9070 | 46600
